Data taken from the DeepSol protein solubility set.

Assay: soluble on expression in E. coli; label from the status in PepcDB or PDB records

Soluble on expression in E. coli, not soluble:
MGSDKIHHHHHHMALPEFKIAQLRHFVWVAELKGFHTAAEKACRTQPAISLSIRDLENKLSTILFEKRNAKTSNTELTPFGQYFLPKAKELIAHHDNVAQDMALMSEHKTGHLRLASVPSIACRMLPELLSKFIADVPELHISFYDDNSEAVLRKVEKQQVDIGIASLPHGHEHADITFTPIWEDQLGVVCREDHPFAEMTELHWKELRKQRLIRNGTSRLLEDTEAEPLLSDSQFLISNMLSLIAMLEEGLGITTLPWFAFPKNNSKLRFIPLTTPKIVRHIGIVQLKNKSLSPAAEALANFILKNTNQKKTSDLNPE
MGSDKIHHHHHHMANLPWITIIGLGEDGPEGLPPASRDALAAAEIIMGPARHLALIGPTNAQQVEWPVPFADGIDVLRGHGGRPVAVLVSGDPFWYGAGRAMSKAFGRDAWRAIPVPSVFSLVSSRMGWPIEDTLCIGLHARPFEQLRAKLAPGRRIIATLRDGPAVSGVAHFLRDTGFGGSTLTVCEAVGGPREVVTQVSVAEALKGGFSHPVTVAVELHGTGEVIPLASGRPDALFQTDGVMTKRPVRALTLSALAPRAGEHLWDIGGGSGSIAVEWALADRTCTATVVETRADRVALIRANVESFGLTDQVTVLEGMAPGAMADAPPANAVFIGGGLSPEMLQFVTALPKGTRVVANAVTLEAEAHLAQAQGSFGGDLMRIEIAHAQPLGPKRGWTSAYPVVQWSVTL
MGSDKIHHHHHHMANSHDGNAQVLSYPKHPPKDFSDLAATLIRNGLGRVDAETLERHLEQVGYFRLKGYWYQFLSPSSSCDYKHVLPFRKGTQFQQIWCRYIFDQELRTLVFDGIITFEIYLKSFLAHELSLFGGEFGYTKPEGLPELSFDDYLACINSLRASFTKSNLPYLKHFKRTYKDPLPPYWMIVGCLSYGTLKGYFYQGSPDSVKRKLAAKLHIFNPNTNPEVHGDIKILSNWLETIRQVRNMVAHHDRFWNETSTRIVPKLPKHRSGLHANEWWGNDWDAFRTDSTGPAAFLTMENYLLQQIDGSAWKNKFISLMDRYPEILATEMGFPEDWRSLALWS
MGSDKIHHHHHHMAQMTSQTLYQALWNSADILRSKMDASEYKNYLLGLIFYKYLSDRMVVYASDQLEEKTTDLDKAQQIYTDAYNDKDLHDDLISNVSDEFGYHIQPDLTFTALIDKIDHGTFQLEDLSQSFRDIEQSSEFFSGLFEDVDLYSRKLGATPQKQNQVISDVMKQISTLDLVGQNTNDILGDAYEYLIGQFASDSGKNAGEFYTPQSVSRLITQIAMHGKEDVRGFTIYDPTMGSGSLLLNARRYSNERLSINYFGQELNTSTYNLARMNMILHGVPINNQHLHNADTLDQDWPIEEPTNFDAVVMNPPYSAHWQPSKGTENDPRFVSYGLAPKSKADFAFLLHGYYHLKDTGVMCIVLPHGVLFRGGAEGRIRKALLENGAIDTVIGLPANIFFNTSIPTTVTVLKKSRTTRDVLFIDASKEFEKAKNQNHLTDDNIQKILETCINRKDVDKYAHLASFDEIKENDFNLNIPRYVDTTEPEKPVDVVKVVADIKKNDEEIARLSSELAKNFDDLVANNDEAAKQLTALKELFKNE
MGSDKIHHHHHHMARKKRNPDAEKLAESILNAYQPESVDDMQDALKDVFGPLFEKMLQGELNNHLGYDAHSKEPKEHDNRRNGYGTKTLKTSFGEVAIDVPRDREASFEPELIPKRKRDVSDIEGKVLSMYARGMSQRDIAATVEAIYGFDISHEMISDITDAVLPELEEWQARPLAKCYAFLFVDCMYVTLRENYEAKEYAVYTILGYDLKGNKEILGLWLNQTESKNRWMQVFDELKARGVEDVFFISMDGVSGLEEGAKAIFPSVIVQRCIVHLVRNALRYIPSKDYKEVCRDMKKFYGASSLNAAHAAFGSFQNRWSHYSGAVDVWKRNFAHVEQLFDYGSAIRKIMYTTNAVESVHSSFRKVTKKGAFSNENALLKLLYLRTKELHAKWSGGRIQNWAMVLKQLMINETFSSRMKSMRFTFRNNGRFIQLCVRSKFI
MGSDKIHHHHHHMARRKEHSHDEIRVMAIEAAIALLQQQGVQGLSLRKIASEIGYVPSTLINIFGSYNYLLLAVSEATLQLLMSHLSAVSENDSLRHIIVMAQKYSEFAHSQRQCFKLVFELQLLESEHLPASQGQLIANLFRLIENELALLFPNETIEQQLQMSRVLWGGIHGLTALSLDNKLFADTVSLPALLESHVTGYLQGMGYQREEACC
MGSDKIHHHHHHMARVAINGFGRIGRLVYRIIYERKNPDIEVVAINDLTDTKTLAHLLKYDSVHKKFPGKVEYTENSLIVDGKEIKVFAEPDPSKLPWKDLGVDFVIESTGVFRNREKAELHLQAGAKKVIITAPAKGEDITVVIGCNEDQLKPEHTIISCASCTTNSIAPIVKVLHEKFGIVSGMLTTVHSYTNDQRVLDLPHKDLRRARAAAVNIIPTTTGAAKAVALVVPEVKGKLDGMAIRVPTPDGSITDLTVLVEKETTVEEVNAVMKEATEGRLKGIIGYNDEPIVSSDIIGTTFSGIFDATITNVIGGKLVKVASWYDNEYGYSNRVVDTLELLLKM
MGSDKIHHHHHHMATNSSTEQSLTKKVWNLATTLAGQGIGFTDYITQLTYLLFLKMDAENVEMFGEESAIPTGYQWADLIAFDGLDLVKQYEETLKLLSELDNLIGTIYTKAQNKIDKPVYLKKVITMIDEEQWLIMDGDVKGAIYESILEKNGQDKKSGAGQYFTPRPLIQAMVDCINPQMGETVCDPACGTGGFLLTAYDYMKGQSASKEKRDFLRDKALHGVDNTPLVVTLASMNLYLHGIGTDRSPIVCEDSLEKEPSTLVDVILANPPFGTRPAGSVDINRPDFYVETKNNQLNFLQHMMLMLKTGGRAAVVLPDNVLFEAGAGETIRKRLLQDFNLHTILRLPTGIFYAQGVKANVLFFSKGQPTKEIWFYDYRTDIKHTLATNKLERHHLDDFVSCYNNRVEIYDAENNPQGRWRKYPVDEIIARDKTSLDITWIKPGGEVDDRSLAELMADIKDKSQTISRAVTELEKLLANIEEN
MGSDKIHHHHHHMAYPPTGGDRKTNLTTILRKSSKNLMSKKSDSQFQNLFTSAKSSNWDERLGQIAYRFNREYQRETFELPTEVQAMPIFREWIGGSFSGRIASPFWEIAQPQKNQHCLDIGCGISFLIYPWRDWQAFFHGQEISNVARDTLNSRGPQLNSKLFKGVELGAAHQLNYSPEQFDLAIATGFSCYFPLEYWNAVLAEVKRVLKPGGHFVFDILNPEQPLAEDWAVLETYLGAEVFLEPVAGWEKAIKAAGAKIVTQKSGELFQMYKVRF
MGSDKIHHHHHHMDDDSNQKPLFHMALGVLTSLTPPQHHIELVDEHFHDKINYDGDYDMVGITSRTIEATRAYEIADEFRKRGKTVVLGGLHISFNPEEAAAHADCIVVGEADNLWTTLLDDVANNRLKERYDSKDFPPVKAITPLDYARIAKASKRTKVDGTKSIPIYVTRGCPFNCSFCVTPNFTGKQYRVQDPKLLKHQIEEAKKYFFKANGKNSKPWFMLTDENLGINKKKLWESLDLLKECDITFSVFLSINFLEDPTTVKKLVDAGCNFVLAGLESIKQSTLEAYNKGHVNSAEKYSKIIEDCRKAGLNIQGNFLFNPAIDTFEDIDELVQFVKKNHIFMPIFQIITPYPGTQMYHEYRESGLITIEDWEKYNALHLVIKSDRYEPLLFQYKVLKSYVEVYTWKEILLRTLYNPRKLINLVTSIAFKKHLAAQLKAFERNHKMNPAMLSGVKPVMNG
MGSDKIHHHHHHMDEIARFLRSYPPFDRLPEQVVHQIAGELQIEFVRAGQTILTKGGEPSSFLYIVCKGSVDLLRSEDQVVDTLGPGEAFGHPSLIRGQPPLVTVRAHTDTLLYLLPGAIFHRLRAEQPQFAAFFAASVIERLGYALQSRQSESNPALFQTRLRDLVARPPVSISPEATVGDAARLMRDERISSLIVEHTPIGIITDRDLRNRVLAEGLPDTTPVRQVMSAPATTIAADALAFEGLLLMLERGIHHLPLVEGDRVVGVVTHTDILRRQSNSPLFLPRLLQRATSLADLRRYTDQVADAVFTLTAAGARVSDIGRVVAVAHDALLQRLIHDAEAQLGPPPVPYAWLVLGSEGRYEQTLRTDQDNALVYDDSASADDVRYFEQLATLVVDWLVECGFPRCPGNIMATNPEWRQSLATWQRYFHRWIEIPDEESLLRIAIFFDYRQVYGQLPAEPVLRTITQHAAEHRIFMARLARAALRQPAPLTFFRQVALERRGDPRDL
